The values below come from publication PMC6825352, “Ghd8 controls rice photoperiod sensitivity by forming a complex that interacts with Ghd7”.

The target of data set [1] is HD1 (MBP-HD1);GHD8 (His-GHD8, NF-YB);OsHAP5b (His-HAP5b, NF-YC) (Oryza sativa (rice);Oryza sativa …, UniProt Q9FDX8;Q0J7P4;Q655V5 1-395;1-297;1-250, ||). In words: EMSA; considerably stronger signal than HD1 alone; 50x/100x unlabeled F1 competitor; 5 mM Tris pH 7.5, 25 mM KCl, 0.5 mM DTT, 5 mM MgCl2, 2.5% glycerol, 0.05% NP-40, 50 ng/uL poly(dI-dC), room temperature 20 min, 5% polyacrylamide gel. Particulars: protein: recombinant;recombinant;recombinant; tags: MBP (pMAL-c2X); copies: 1;1;1; label: 3'-biotin; blunt.
Sequence of HD1 (MBP-HD1);GHD8 (His-GHD8, NF-YB);OsHAP5b (His-HAP5b, NF-YC) (Q9FDX8 whole entry, chain 1 of 3): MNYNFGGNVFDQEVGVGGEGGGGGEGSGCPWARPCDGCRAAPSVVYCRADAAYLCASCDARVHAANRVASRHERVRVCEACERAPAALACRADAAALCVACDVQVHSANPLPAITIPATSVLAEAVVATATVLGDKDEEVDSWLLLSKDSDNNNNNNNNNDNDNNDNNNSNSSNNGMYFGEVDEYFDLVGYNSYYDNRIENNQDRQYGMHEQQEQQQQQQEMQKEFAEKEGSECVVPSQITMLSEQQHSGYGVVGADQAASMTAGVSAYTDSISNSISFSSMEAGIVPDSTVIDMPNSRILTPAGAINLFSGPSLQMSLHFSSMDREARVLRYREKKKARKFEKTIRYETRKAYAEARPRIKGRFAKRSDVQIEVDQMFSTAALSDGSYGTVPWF
Sequence of HD1 (MBP-HD1);GHD8 (His-GHD8, NF-YB);OsHAP5b (His-HAP5b, NF-YC) (Q0J7P4 whole entry, chain 2 of 3): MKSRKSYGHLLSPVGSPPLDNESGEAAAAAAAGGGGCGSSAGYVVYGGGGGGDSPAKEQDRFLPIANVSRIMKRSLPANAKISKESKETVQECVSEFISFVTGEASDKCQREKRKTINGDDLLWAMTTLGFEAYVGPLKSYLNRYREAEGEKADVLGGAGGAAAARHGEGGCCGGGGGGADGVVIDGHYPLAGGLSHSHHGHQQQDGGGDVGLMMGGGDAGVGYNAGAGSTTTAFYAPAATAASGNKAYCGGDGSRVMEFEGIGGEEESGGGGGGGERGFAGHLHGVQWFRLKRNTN
Sequence of HD1 (MBP-HD1);GHD8 (His-GHD8, NF-YB);OsHAP5b (His-HAP5b, NF-YC) (Q655V5 whole entry, chain 3 of 3): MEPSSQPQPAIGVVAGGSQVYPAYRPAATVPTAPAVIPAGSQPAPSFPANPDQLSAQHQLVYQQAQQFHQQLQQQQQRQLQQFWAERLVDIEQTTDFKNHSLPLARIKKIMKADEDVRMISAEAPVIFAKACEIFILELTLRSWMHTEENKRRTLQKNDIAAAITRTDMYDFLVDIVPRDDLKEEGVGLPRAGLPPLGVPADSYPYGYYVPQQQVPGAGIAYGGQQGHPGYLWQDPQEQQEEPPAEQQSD

Data set [2] concerns the target HD1 (MBP-HD1);GHD8 (His-GHD8, NF-YB) (Oryza sativa (rice);Oryza sativa (rice), UniProt Q9FDX8;Q0J7P4 1-395;1-297, |). Put plainly: EMSA; 5 mM Tris pH 7.5, 25 mM KCl, 0.5 mM DTT, 5 mM MgCl2, 2.5% glycerol, 0.05% NP-40, 50 ng/uL poly(dI-dC), room temperature 20 min, 5% polyacrylamide gel. Particulars: protein: recombinant;recombinant; tags: MBP (pMAL-c2X; text says MBP 'at the down-stream');N-terminal thioredoxin-His (pET-32); copies: 1;1; label: 3'-biotin; blunt.

Sequence of HD1 (MBP-HD1);GHD8 (His-GHD8, NF-YB) (Q9FDX8 whole entry, chain 1 of 2): as the sequence (Q9FDX8 whole entry, chain 1 of 3) above
Sequence of HD1 (MBP-HD1);GHD8 (His-GHD8, NF-YB) (Q0J7P4 whole entry, chain 2 of 2): as the sequence (Q0J7P4 whole entry, chain 2 of 3) above

B1: F1 (dsDNA)
DNA 1: ATCTGGTTGCAATGGGGATGGCCAATGAGGAGTCG
DNA 2: CGACTCCTCATTGGCCATCCCCATTGCAACCAGAT
In the case of B1, the binding result in data set [1] and in data set [2] was “binds” each time.
